Laboratory results: PMC10055104, “Organic Anion Transporting Polypeptide 3A1 (OATP3A1)-Gated Bio-Orthogonal Labeling of Intracellular Proteins” (Molecules, 2023)

Columns and labels:
[1] = target: T1, OATP3A1 (Homo sapiens, UniProt Q9UIG8); assay: inhibition of CBRD2-BAT and CBRD4-BAT ([…]) uptake, flow cytometry; format: cell-based; conditions: Uptake buffer pH 5.5, 37 °C, 15 min preincubation with inhibitor
T1 construct: gene SLCO3A1; full-length transporter overexpressed in HEK-293 cells by recombinant lentivirus
T1 sequence (Q9UIG8 1-710): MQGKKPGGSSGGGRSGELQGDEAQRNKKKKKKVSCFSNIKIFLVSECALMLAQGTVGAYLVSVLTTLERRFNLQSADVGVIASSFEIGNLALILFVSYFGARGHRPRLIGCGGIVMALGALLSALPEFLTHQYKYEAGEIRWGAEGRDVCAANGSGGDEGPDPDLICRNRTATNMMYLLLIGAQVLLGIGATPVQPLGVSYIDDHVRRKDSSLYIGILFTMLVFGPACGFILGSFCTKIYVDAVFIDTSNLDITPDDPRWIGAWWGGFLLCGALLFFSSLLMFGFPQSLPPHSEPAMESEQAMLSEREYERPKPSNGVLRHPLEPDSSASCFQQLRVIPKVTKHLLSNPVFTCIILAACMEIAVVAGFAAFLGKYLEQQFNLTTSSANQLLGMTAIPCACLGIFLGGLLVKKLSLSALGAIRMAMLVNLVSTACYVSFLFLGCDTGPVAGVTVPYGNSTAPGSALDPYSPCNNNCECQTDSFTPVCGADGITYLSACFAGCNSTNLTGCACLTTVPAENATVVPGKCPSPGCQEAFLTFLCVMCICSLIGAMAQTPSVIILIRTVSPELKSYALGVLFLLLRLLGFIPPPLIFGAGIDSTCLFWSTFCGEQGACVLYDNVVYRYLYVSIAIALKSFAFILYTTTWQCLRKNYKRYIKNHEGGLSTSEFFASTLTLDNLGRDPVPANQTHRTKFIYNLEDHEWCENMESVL

[2] = substrate: CCN(CC)c1ccc2cc(/C=C/c3cc[n+](CCCCCC(=O)NCc4ccc(-c5nncnn5)cc4)cc3S(=O)(=O)[O-])c(=O)oc2c1; assay: flow cytometry uptake into HEK-293-OATP3A1 cells, normalised to mock cells, Michaelis-Menten fit; format: cell-based, Homo sapiens; conditions: Uptake buffer pH 5.5, 37 °C, 15 min, transport
[3] = substrate: CN(C)c1ccc(/C=C/c2cc[n+](CCCCCC(=O)NCc3ccc(-c4nncnn4)cc3)cc2S(=O)(=O)[O-])cc1; assay: as above; format: cell-based, Homo sapiens; conditions: Uptake buffer pH 5.5, 37 °C, 15 min, transport

CCc1oc2ccccc2c1C(=O)c1cc(Br)c(O)c(Br)c1 [benzbromarone]
% decrease of transport at 20 μM [1]: ~ 90%

B1: OATP3A1 (Homo sapiens) (protein)
chain: T1 sequence (Q9UIG8 1-710)
notes: full-length transporter overexpressed in HEK-293 cells by recombinant lentivirus
Km [2]: 7.2 µM | Km [3]: 45 µM
